US9675675B2, “Microneedle device having a peptide therapeutic agent and an amino acid, methods of making and using the same” (3M INNOVATIVE PROPERTIES COMPANY, priority 2011, dated 2017)

Columns and labels:
[1] = Storage stability of lysozyme in dried coating on microneedle arrays, HPLC content; assay type: physicochemical; conditions: 10 mg/mL lysozyme in PBS; for Percent of Initial Lysozyme Content in the Coating, Initial: freshly coated reference standard, about 4° C.; for Percent of Initial Lysozyme Content in the Coating, Day 1 / Percent of Initial Lysozyme Content in the Coating, Day 3 / Percent of Initial Lysozyme Content in the Coating, Day 7 / Percent of Initial Lysozyme Content in the Coating, Day 14: stored 40° C., 96% RH
Experimental: (§1) The protein or polypeptide content in the formulation coated on the microneedle arrays was determined using an Agilent 1100 HPLC system (Agilent Technologies, Wilmington, Del.) equipped with a binary pump, well-plated thermostated autosampler, thermostated column compartment, and a diode array UV detector. A Zorbax 300SB-C8 column (Agilent Technologies, Wilmington, Del.) having a 5 μm particle size and 2.1×150 mm inner diameter was used for the separations. The column was maintained at 50° C. The mobile phase consisted of two eluents. Eluent A was 0.1% TFA (trifluoroacetic acid) in water and eluent B was 0.1% TFA in acetonitrile (Spectrum Chemical, New Brunswick, N.J.). A linear gradient from 80/20 to 50/50 (A/B) was applied over 30 minutes. The flow rate was 0.4 mL/minute and the UV detection wavelength was set at 214 nm. The total run time was 34 minutes and the sample injection volume was 15 μL.
A sample formulation containing 10 mg/mL of lysozyme and 12 mg/mL of L-histidine monohydrochloride (His-HCl) in PBS was prepared. The pH of the sample formulation was 5.5-6.0. A control formulation was also prepared containing 10 mg/mL of lysozyme in PBS. […] The pH of the control formulation was 6.5. Microneedle arrays were coated with either the sample or the control formulation. The coating was applied by dropwise addition of 50 μL of the formulation to the portion of the array defined by the octagon shaped pattern of microneedles. The flood coated arrays (both sample and control formulation coated) were dried in an oven at 35° C. for about 15 hours.
After drying, the coated arrays were placed in a storage chamber that was maintained at 40° C. and 96% relative humidity (RH). The lysozyme content of the coated arrays was determined following storage in the chamber for 1, 3, 7, and 14 days. At the designated time point, an array was taken from the chamber and washed with PBS (2 mL) to remove the coating from the array. An aliquot of the resulting wash solution was analyzed for lysozyme content using the HPLC method described above. Reference standards were prepared by measuring the lysozyme content of freshly coated arrays (both sample and control formulation coated). The arrays used as reference standards were stored in a refrigerator at about 4° C. and analyzed within one day of being prepared. The percentage of undegraded lysozyme remaining in the coating at each time point was determined by measuring the peak area for lysozyme in the selected coating and dividing it by the peak area measured for lysozyme in the corresponding reference standard.
The same procedure as described in Example 7 was used with the exception that the sample formulation contained 12 mg/mL of L-arginine hydrochloride, instead of L-histidine monohydrochloride. The pH of the sample formulation was 6.5.

[2] = Storage stability of insulin in dried coating on microneedle arrays, HPLC content; assay type: physicochemical; conditions: 5 mg/mL insulin in 0.1 N acetic acid, pH 3.0-3.5; for Percent of Initial Insulin Content in the Coating, Initial: freshly coated reference standard, about 4° C.; for Percent of Initial Insulin Content in the Coating, Day 1 / Percent of Initial Insulin Content in the Coating, Day 3 / Percent of Initial Insulin Content in the Coating, Day 7 / Percent of Initial Insulin Content in the Coating, Day 14: stored 40° C., 96% RH
Experimental: as §1
The pH of the sample formulation was 3.0-3.5. […] The pH of the control formulation was 3.0-3.5. Microneedle arrays were coated with either the sample or the control formulation. The coating was applied by dropwise addition of 50 μL of the formulation to the portion of the array defined by the octagon shaped pattern of microneedles. The flood coated arrays (both sample and control formulation coated) were dried in an oven at 35° C. for about 15 hours.
After drying, the coated arrays were placed in a storage chamber that was maintained at 40° C. and 96% relative humidity (RH). […] At the designated time point, an array was taken from the chamber and washed with 0.1 N acetic acid (1 mL) to remove the coating from the array. […] The arrays used as reference standards were stored in a refrigerator at about 4° C. and analyzed within one day of being prepared.
[…] The pH of the sample formulation was 3.0-3.5.

[3] = Amino acid: L-Arginine (12 mg/mL Arg-HCl), pH 6.5
[4] = Amino acid: L-Histidine (12 mg/mL His-HCl), pH 5.5-6.0
[5] = Amino acid: None (control), pH 6.5
[6] = Amino acid: L-Arginine (12 mg/mL Arg-HCl)
[7] = Amino acid: L-Histidine (12 mg/mL His-HCl)

lysozyme
Percent of Initial Lysozyme Content in the Coating, Initial [1, 3]: 100%
Percent of Initial Lysozyme Content in the Coating, Day 1 [1, 3]: 52.6%
Percent of Initial Lysozyme Content in the Coating, Day 3 [1, 3]: 33.1%
Percent of Initial Lysozyme Content in the Coating, Day 7 [1, 3]: 22.4%
Percent of Initial Lysozyme Content in the Coating, Day 14 [1, 3]: 23.0%
Percent of Initial Lysozyme Content in the Coating, Initial [1, 4]: 100%
Percent of Initial Lysozyme Content in the Coating, Day 1 [1, 4]: 100.0%
Percent of Initial Lysozyme Content in the Coating, Day 3 [1, 4]: 80.6%
Percent of Initial Lysozyme Content in the Coating, Day 7 [1, 4]: 60.1%
Percent of Initial Lysozyme Content in the Coating, Day 14 [1, 4]: 53.3%
Percent of Initial Lysozyme Content in the Coating, Initial [1, 5]: 100%
Percent of Initial Lysozyme Content in the Coating, Day 1 [1, 5]: 26.9%
Percent of Initial Lysozyme Content in the Coating, Day 3 [1, 5]: 4.4%
Percent of Initial Lysozyme Content in the Coating, Day 7 [1, 5]: 1.9%
Percent of Initial Lysozyme Content in the Coating, Day 14 [1, 5]: 1.9%

Insulin
Percent of Initial Insulin Content in the Coating, Initial [2, 6]: 100%
Percent of Initial Insulin Content in the Coating, Day 1 [2, 6]: 75.4%
Percent of Initial Insulin Content in the Coating, Day 3 [2, 6]: 45.9%
Percent of Initial Insulin Content in the Coating, Day 7 [2, 6]: 27.1%
Percent of Initial Insulin Content in the Coating, Initial [2, 7]: 100%
Percent of Initial Insulin Content in the Coating, Day 1 [2, 7]: 95.3%
Percent of Initial Insulin Content in the Coating, Day 3 [2, 7]: 93.5%
Percent of Initial Insulin Content in the Coating, Day 7 [2, 7]: 79.2%
Percent of Initial Insulin Content in the Coating, Day 14 [2, 7]: 34.9%
Percent of Initial Insulin Content in the Coating, Initial ([2]; Amino acid: None (control)): 100%
Percent of Initial Insulin Content in the Coating, Day 3 ([2]; Amino acid: None (control)): 0%
Percent of Initial Insulin Content in the Coating, Day 7 ([2]; Amino acid: None (control)): 0%
Percent of Initial Insulin Content in the Coating, Day 14 ([2]; Amino acid: None (control)): 0%
